This note sets out measurements from US20200330548A1 (SYNERGY PHARMACEUTICALS, published 2020).

Assay [1] deals with guanylate cyclase-C (GC-C) on T84 cells (human, UniProt P25092 24-1073). Put plainly: cell-based or functional assay.
The target of assay [2] is T1, guanylate cyclase-C (GC-C) on rat jejunum tissue (rat, UniProt P23897 23-1072).
T1 sequence (looked up): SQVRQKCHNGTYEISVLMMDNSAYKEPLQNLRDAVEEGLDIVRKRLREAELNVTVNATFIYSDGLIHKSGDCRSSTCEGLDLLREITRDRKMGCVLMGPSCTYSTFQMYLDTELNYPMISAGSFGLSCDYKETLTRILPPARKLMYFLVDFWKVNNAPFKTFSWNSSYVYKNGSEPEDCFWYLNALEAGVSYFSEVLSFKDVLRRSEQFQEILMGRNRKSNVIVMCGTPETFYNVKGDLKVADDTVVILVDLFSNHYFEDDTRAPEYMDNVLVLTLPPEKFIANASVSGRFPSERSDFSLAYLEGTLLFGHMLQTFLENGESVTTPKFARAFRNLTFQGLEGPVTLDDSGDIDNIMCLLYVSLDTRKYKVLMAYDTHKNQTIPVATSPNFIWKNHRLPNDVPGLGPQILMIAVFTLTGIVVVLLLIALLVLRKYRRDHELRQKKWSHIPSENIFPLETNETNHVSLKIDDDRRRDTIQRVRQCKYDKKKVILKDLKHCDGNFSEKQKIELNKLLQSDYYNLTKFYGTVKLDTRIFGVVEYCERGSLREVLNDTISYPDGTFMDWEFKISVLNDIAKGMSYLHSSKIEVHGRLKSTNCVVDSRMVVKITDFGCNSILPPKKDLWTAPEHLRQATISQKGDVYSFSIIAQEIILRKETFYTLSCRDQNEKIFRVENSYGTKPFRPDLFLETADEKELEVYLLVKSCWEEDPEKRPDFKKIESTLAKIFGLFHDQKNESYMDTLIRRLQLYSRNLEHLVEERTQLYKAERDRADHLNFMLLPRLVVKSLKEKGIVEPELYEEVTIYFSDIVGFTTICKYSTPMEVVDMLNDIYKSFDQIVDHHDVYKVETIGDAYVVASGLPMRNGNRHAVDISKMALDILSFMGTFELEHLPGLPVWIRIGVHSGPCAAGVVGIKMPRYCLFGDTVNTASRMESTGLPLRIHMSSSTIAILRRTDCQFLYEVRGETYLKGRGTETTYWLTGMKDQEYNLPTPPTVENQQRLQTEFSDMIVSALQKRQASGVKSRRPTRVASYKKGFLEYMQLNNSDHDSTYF
Put plainly: cell-based or functional assay.

Bridge positions count the residues as written; N and C are the ends. Square brackets hold non-standard residues; d marks the D form. Ends that are not written are not given here.

Sequence of guanylate cyclase-C (GC-C) on T84 cells (P25092 24-1073): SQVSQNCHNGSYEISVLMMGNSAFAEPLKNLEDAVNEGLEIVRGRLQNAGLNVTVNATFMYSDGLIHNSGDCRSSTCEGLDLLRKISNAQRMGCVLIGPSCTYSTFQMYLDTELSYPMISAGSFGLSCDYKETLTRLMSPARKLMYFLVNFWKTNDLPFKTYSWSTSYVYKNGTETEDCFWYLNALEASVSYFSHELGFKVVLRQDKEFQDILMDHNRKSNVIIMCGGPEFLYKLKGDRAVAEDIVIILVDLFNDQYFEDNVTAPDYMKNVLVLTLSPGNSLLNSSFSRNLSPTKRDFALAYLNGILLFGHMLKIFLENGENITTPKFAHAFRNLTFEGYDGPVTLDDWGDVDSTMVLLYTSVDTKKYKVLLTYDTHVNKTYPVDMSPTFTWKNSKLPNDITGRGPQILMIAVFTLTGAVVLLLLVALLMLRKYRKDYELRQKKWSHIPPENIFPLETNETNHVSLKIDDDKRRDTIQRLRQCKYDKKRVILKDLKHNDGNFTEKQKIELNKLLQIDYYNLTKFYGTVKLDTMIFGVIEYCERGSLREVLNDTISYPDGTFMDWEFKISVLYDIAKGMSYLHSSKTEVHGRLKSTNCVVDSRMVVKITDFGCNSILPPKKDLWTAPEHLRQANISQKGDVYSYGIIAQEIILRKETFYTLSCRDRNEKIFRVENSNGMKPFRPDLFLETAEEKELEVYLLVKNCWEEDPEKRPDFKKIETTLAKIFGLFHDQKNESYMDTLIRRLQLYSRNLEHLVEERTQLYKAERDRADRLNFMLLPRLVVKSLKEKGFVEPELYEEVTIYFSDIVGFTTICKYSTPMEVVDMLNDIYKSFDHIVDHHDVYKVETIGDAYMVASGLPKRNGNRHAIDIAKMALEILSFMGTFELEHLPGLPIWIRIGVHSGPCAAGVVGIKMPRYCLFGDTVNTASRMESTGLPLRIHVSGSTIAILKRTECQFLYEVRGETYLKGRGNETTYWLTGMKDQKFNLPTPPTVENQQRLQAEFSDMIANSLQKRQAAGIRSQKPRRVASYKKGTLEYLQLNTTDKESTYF

B1: SP-333 (peptide)
peptide: [dN]DECELCVNVACTGC[dL]
modifications: disulfide 4-12, 7-15
B1: the “short-circuit current (Isc, chloride current) across T84 cells monolayer, Ussing chamber; EC50” value in assay [1] turned out to be 169 nM. Moreover, the “short-circuit current (Isc, chloride current) across rat jejunum tissue, Ussing chamber; EC50” value in assay [2] was 299 nM.
